IntAct's records for PubMed 19415799

B1: Cell division protein FtsZ (Escherichia coli (strain K12)), P0A9A6 (parent)
chain: MFEPMELTNDAVIKVIGVGGGGGNAVEHMVRERIEGVEFFAVNTDAQALRKTAVGQTIQIGSGITKGLGAGANPEVGRNAADEDRDALRAALEGADMVFIAAGMGGGTGTGAAPVVAEVAKDLGILTVAVVTKPFNFEGKKRMAFAEQGITELSKHVDSLITIPNDKLLKVLGRGISLLDAFGAANDVLKGAVQGIAELITRPGLMNVDFADVRTVMSEMGYAMMGSGVASGEDRAEEAAEMAISSPLLEDIDLSGARGVLVNITAGFDLRLDEFETVGNTIRAFASDNATVVIGTSLDPDMNDELRVTVVATGIGMDKRPEITLVTNKQVQQPVMDRYQQHGMAPLTQEQKPVAKVVNDNAPQTAKEPDYLDIPAFLRKQAD
partner: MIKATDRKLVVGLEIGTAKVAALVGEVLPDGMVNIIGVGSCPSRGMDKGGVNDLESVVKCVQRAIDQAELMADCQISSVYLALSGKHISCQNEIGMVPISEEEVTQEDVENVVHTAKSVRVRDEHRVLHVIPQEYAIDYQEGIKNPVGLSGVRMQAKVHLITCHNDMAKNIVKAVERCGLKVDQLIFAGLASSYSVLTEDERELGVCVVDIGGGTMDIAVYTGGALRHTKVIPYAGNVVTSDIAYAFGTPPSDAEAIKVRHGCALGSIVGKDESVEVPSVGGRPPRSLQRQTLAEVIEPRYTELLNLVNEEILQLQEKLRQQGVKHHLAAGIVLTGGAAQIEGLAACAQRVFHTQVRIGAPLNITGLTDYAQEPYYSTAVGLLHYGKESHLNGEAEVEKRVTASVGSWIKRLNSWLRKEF

Variants of: B1
Details: with ftsa_ecoli ftsA
MFEPMELTNDAVIKVIGVGGGGGNAVEHMVRERIEGVEFFAVNTDAQALRKTAVGQTIQIGSGITKGLGAGANPEVGRNAADEDRDALRAALEGADMVFIAAGMGGGTGTGAAPVVAEVAKDLGILTVAVVTKPFNFEGKKRMAFAEQGITELSKHVDSLITIPNDKLLKVLGRGISLLDAFGAANDVLKGAVQGIAELITRPGLMNVDFADVRTVMSEMGYAMMGSGVASGEDRAEEAAEMAISSPLLEDIDLSGARGVLVNITAGFDLRLDEFETVGNTIRAFASDNATVVIGTSLDPDMNDELRVTVVATGIGMDKRPEITLVTNKQVQQPVMDRYQQHGMAPLTQEQKPVAKVVNDNAPQTAKEPDYLDVPAFLRKQAD [I374V] was tested, and the “effect of a mutation on the interaction” value was “decreasing interaction strength”.
